From patent US20220323583A1, “Pharmaceutical Formulations of Bi-Specific Diabodies and Use of the Same” (MacroGenics, Inc., priority 2019, published 2022)

Columns and labels:
Cynomolgus CD123-His = test: Binding of DART-A to CD123 (ka, kd, KD); set-up: species or system cynomolgus monkey
[1] = tested on: primary AML specimens (BMNC, PBMC); test: Incubation of primary AML bone marrow samples with DART-A; assay type: cell-based, human
Source text: (§1) Upregulation of granzyme B and perforin levels in both CD8 and CD4 T cells was observed.

[2] = tested on: pDCs in cynomolgus monkey PBMCs; test: pDC depletion in PBMCs; assay type: cell-based
Source text: as §1

pDCs in human PBMCs = test: pDC depletion in PBMCs; assay type: cell-based
Source text: as §1

MOLM13 tumors = test: Human T cells and Molm13 tumor cells injected subcutaneously into NSG mice; assay type: in vivo, NOD/SCID gamma (NSG) knockout mice
Procedure: A dose of 0.004 mg/kg and higher was active in the MOLM13 model.

[3] = Sub-visible particle count, light obscuration (HIAC); assay type: physicochemical; conditions: for Subvisible Particles by USP <788> ≥2 μm/mL / Subvisible Particles by USP <788> ≥10 μm/mL / Subvisible Particles by USP <788> ≥25 μm/mL: Stabilizer 2; for Particle Counts/mL ≥10 μm / Particle Counts/mL ≥25 μm: Study 1, dual-pump infusion
Human CD3ε/δ = Human CD3ε/δ (Homo sapiens, UniProt P07766); test: Binding of DART-A to CD3 (ka, kd, KD)
Visual appearance = assay type: physicochemical; conditions: for Appearance / Appearance, Particulates: 1250 ng/mL dosing solution
[4] = SE-HPLC (protein aggregation: % main peak, % HMW, % LMW); assay type: physicochemical; conditions: for FLR SE-HPLC % HMW / FLR SE-HPLC % LMW / FLR SE-HPLC % Main Peak: 0.1 mg/mL solution, Stabilizer 2
Procedure: FLR SE-HPLC analysis was performed to measure protein purity, monomer purity and protein stability. The FLR SE-HPLC configuration included a fluorescence (FLR) detector (λX=280 nm, λE=340 nm), a mobile phase composition of 350 mM Mobile Phase (175 mMNaH2PO4, 175 mMNa2SO, pH 6.3) and a TosoBio TSK G3000SWXL size exclusion column. Samples were diluted to 0.1 mg/mL and stored at 5±3° C. for 24 to 96 hours prior to analysis. Eight μg of protein (or 100 μL is sample concentration was below 0.1 mg/mL) was injected for each 30-minute run. HMW and LMW species and monomer peaks were monitored.

Cynomolgus CD3ε/δ = Cynomolgus CD3ε/δ (Macaca fascicularis, UniProt Q95LI5); test: Binding of DART-A to CD3 (ka, kd, KD); set-up: species or system cynomolgus monkey
Osmolality = assay type: physicochemical; conditions: Stabilizer 2
[5] = tested on: primary ALL bone marrow samples; test: Incubation of primary ALL bone marrow samples with DART-A; assay type: cell-based, human; conditions: vs untreated control or Control DART
Source text: as §1

Human CD123-His = target: T1, Human CD123-His (Homo sapiens, UniProt P26951); test: Binding of DART-A to CD123 (ka, kd, KD)
T1 sequence (P26951 19-378): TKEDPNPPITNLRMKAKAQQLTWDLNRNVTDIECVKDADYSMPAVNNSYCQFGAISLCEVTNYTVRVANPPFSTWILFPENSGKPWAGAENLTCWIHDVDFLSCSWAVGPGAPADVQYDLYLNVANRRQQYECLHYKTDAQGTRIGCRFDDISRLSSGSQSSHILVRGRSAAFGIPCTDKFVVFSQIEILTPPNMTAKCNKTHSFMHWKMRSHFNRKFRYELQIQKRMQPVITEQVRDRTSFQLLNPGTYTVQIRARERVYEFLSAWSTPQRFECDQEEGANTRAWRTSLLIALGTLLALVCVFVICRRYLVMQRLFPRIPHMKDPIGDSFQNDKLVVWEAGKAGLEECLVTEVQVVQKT

[6] = 10 ng/mL dosing solution, Post Infusion (Infusion Time = 48 Hrs)
[7] = 10 ng/mL dosing solution, Post Storage (T = 72 Hrs), room temperature
[8] = 10 ng/mL dosing solution, T = 0
[9] = 20 ng/mL dosing solution, Post Infusion (Infusion Time = 96 Hrs)
[10] = 20 ng/mL dosing solution, Post Storage (T =72 Hrs), room temperature
[11] = 20 ng/mL dosing solution, T = 0
[12] = 1250 ng/mL dosing solution, Post Infusion (Infusion Time = 48 Hrs)
[13] = 1250 ng/mL dosing solution, Post Storage (T = 72 Hrs), room temperature
[14] = 1250 ng/mL dosing solution, T = 0
[15] = High (5000 ng/mL), T = 24 hours
[16] = High (5000 ng/mL), T = 48 hours
[17] = High (5000 ng/mL), T = 72 hours
[18] = 10 ng/mL dosing solution, Stabilizer 2, Post Infusion (Infusion Time = 48 Hrs)
[19] = 10 ng/mL dosing solution, Stabilizer 2, Post Storage (T = 72 Hrs), room temperature
[20] = 10 ng/mL dosing solution, Stabilizer 2, T = 0
[21] = 20 ng/mL dosing solution, Stabilizer 2, Post Infusion (Infusion Time = 96 Hrs)
[22] = 20 ng/mL dosing solution, Stabilizer 2, Post Storage (T =72 Hrs), room temperature
[23] = 20 ng/mL dosing solution, Stabilizer 2, T = 0
[24] = Stabilizer 2, Post Infusion (Infusion Time = 48 Hrs)
[25] = Stabilizer 2, Post Storage (T = 72 Hrs), room temperature
[26] = Post Infusion (Infusion Time = 96 Hrs)
[27] = Post Storage (Time = 72 Hrs), room temperature

Human CD3ε/δ, sequence (P07766 23-126 limits assumed): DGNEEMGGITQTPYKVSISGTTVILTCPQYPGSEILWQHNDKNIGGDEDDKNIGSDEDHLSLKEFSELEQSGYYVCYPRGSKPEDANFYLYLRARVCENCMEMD
Human CD3ε/δ, sequence (P04234 22-105 partner limits assumed): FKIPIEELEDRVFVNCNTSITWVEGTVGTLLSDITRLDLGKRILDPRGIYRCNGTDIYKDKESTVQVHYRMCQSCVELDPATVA
Cynomolgus CD3ε/δ, sequence (Q95LI5 22-117 limits assumed): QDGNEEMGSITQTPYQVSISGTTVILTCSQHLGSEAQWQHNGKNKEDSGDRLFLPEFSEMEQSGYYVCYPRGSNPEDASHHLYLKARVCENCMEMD
Cynomolgus CD3ε/δ, sequence (Q95LI8 22-105 partner limits assumed): as the sequence (P04234 22-105 partner limits assumed) above, with I5V, N15K, I20V, S32T, D33N, I34N, T64A, S74N, V83L counted along it

B1: DART-A: sequence-optimized CD123×CD3 bispecific diabody; chains SEQ ID NO:42 and SEQ ID NO:44 covalently bonded by a disulfide bond (protein)
chain 1: QAVVTQEPSLTVSPGGTVTLTCRSSTGAVTTSNYANWVQQKPGQAPRGLIGGTNKRAPWTPARFSGSLLGGKAALTITGAQAEDEADYYCALWYSNLWVFGGGTKLTVLGGGGSGGGGEVQLVQSGAELKKPGASVKVSCKASGYTFTDYYMKWVRQAPGQGLEWIGDIIPSNGATFYNQKFKGRVTITVDKSTSTAYMELSSLRSEDTAVYYCARSHLLRASWFAYWGQGTLVTVSSGGCGGGEVAALEKEVAALEKEVAALEKEVAALEK
chain 2: DFVMTQSPDSLAVSLGERVTMSCKSSQSLLNSGNQKNYLTWYQQKPGQPPKLLIYWASTRESGVPDRFSGSGSGTDFTLTISSLQAEDVAVYYCQNDYSYPYTFGQGTKLEIKGGGSGGGGEVQLVESGGGLVQPGGSLRLSCAASGFTFSTYAMNWVRQAPGKGLEWVGRIRSKYNNYATYYADSVKDRFTISRDDSKNSLYLQMNSLKTEDTAVYYCVRHGNFGNSYVSWFAYWGQGTLVTVSSGGCGGGKVAALKEKVAALKEKVAALKEKVAALKE
modifications: interchain disulfide bond; First Polypeptide Chain of DART-A; Second Polypeptide Chain of DART-A
Cynomolgus CD123-His
  ka (± SD): 1.5 (± 0.3) × 10^6 M^−1s^−1
  kd (± SD): 4.0 (± 0.7) × 10^−4 s^−1
[1]
  leukemic cell population: depletion of the leukemic cell population over time
  residual T cells (CD4 and CD8): expansion of the residual T cells
[2]
  depletion of pDCs: capable of mediating the depletion of pDCs cells
pDCs in human PBMCs
  depletion of pDCs: capable of mediating the depletion of pDCs cells
MOLM13 tumors; 0.16, 0.5, 0.2, 0.1, 0.02 and 0.004 mg/kg dose levels
  MOLM13 tumor growth: significantly inhibited
MOLM13 tumors; mouse, in vivo
  dose active in the MOLM13 model: ≥ 4 µg/kg
[3]; [6]
  Subvisible Particles by USP <788> ≥2 μm/mL: 140 mL⁻¹
  Subvisible Particles by USP <788> ≥10 μm/mL: 2 mL⁻¹
  Subvisible Particles by USP <788> ≥25 μm/mL: 1 mL⁻¹
[3]; [7]
  Subvisible Particles by USP <788> ≥2 μm/mL: 192 mL⁻¹
  Subvisible Particles by USP <788> ≥10 μm/mL: 10 mL⁻¹
  Subvisible Particles by USP <788> ≥25 μm/mL: 1 mL⁻¹
[3]; [8]
  Subvisible Particles by USP <788> ≥2 μm/mL: 206 mL⁻¹
  Subvisible Particles by USP <788> ≥10 μm/mL: 7 mL⁻¹
  Subvisible Particles by USP <788> ≥25 μm/mL: 1 mL⁻¹
[3]; [9]
  Subvisible Particles by USP <788> ≥2 μm/mL: 85 mL⁻¹
  Subvisible Particles by USP <788> ≥10 μm/mL: 9 mL⁻¹
  Subvisible Particles by USP <788> ≥25 μm/mL: 3 mL⁻¹
[3]; [10]
  Subvisible Particles by USP <788> ≥2 μm/mL: 412 mL⁻¹
  Subvisible Particles by USP <788> ≥10 μm/mL: 8 mL⁻¹
  Subvisible Particles by USP <788> ≥25 μm/mL: 0 mL⁻¹
[3]; [11]
  Subvisible Particles by USP <788> ≥2 μm/mL: 344 mL⁻¹
  Subvisible Particles by USP <788> ≥10 μm/mL: 8 mL⁻¹
  Subvisible Particles by USP <788> ≥25 μm/mL: 0 mL⁻¹
[3]; [12]
  Subvisible Particles by USP <788> ≥2 μm/mL: 188 mL⁻¹
  Subvisible Particles by USP <788> ≥10 μm/mL: 4 mL⁻¹
  Subvisible Particles by USP <788> ≥25 μm/mL: 1 mL⁻¹
[3]; [13]
  Subvisible Particles by USP <788> ≥2 μm/mL: 146 mL⁻¹
  Subvisible Particles by USP <788> ≥10 μm/mL: 7 mL⁻¹
  Subvisible Particles by USP <788> ≥25 μm/mL: 1 mL⁻¹
[3]; [14]
  Subvisible Particles by USP <788> ≥2 μm/mL: 664 mL⁻¹
  Subvisible Particles by USP <788> ≥10 μm/mL: 21 mL⁻¹
  Subvisible Particles by USP <788> ≥25 μm/mL: 1 mL⁻¹
[3]; Stabilizer 2 dosing solutions
  subvisible particle counts ≥2 μm, ≥10 μm and ≥25 μm post-infusion vs T=0: did not increase
[3]; High (5000 ng/mL), T = 0
  Particle Counts/mL ≥10 μm: 14 Counts/mL
  Particle Counts/mL ≥25 μm: 1 Counts/mL
[3]; [15]
  Particle Counts/mL ≥10 μm: 2 Counts/mL
  Particle Counts/mL ≥25 μm: 1 Counts/mL
[3]; [16]
  Particle Counts/mL ≥10 μm: 0 Counts/mL
  Particle Counts/mL ≥25 μm: 0 Counts/mL
[3]; [17]
  Particle Counts/mL ≥10 μm: 0 Counts/mL
  Particle Counts/mL ≥25 μm: 0 Counts/mL
[3]; Low (100 ng/mL), T = 0
  Particle Counts/mL ≥10 μm: 5 Counts/mL
  Particle Counts/mL ≥25 μm: 0 Counts/mL
[3]; Low (100 ng/mL), T = 24 hours
  Particle Counts/mL ≥10 μm: 4 Counts/mL
  Particle Counts/mL ≥25 μm: 1 Counts/mL
[3]; Low (100 ng/mL), T = 48 hours
  Particle Counts/mL ≥10 μm: 7 Counts/mL
  Particle Counts/mL ≥25 μm: 0 Counts/mL
[3]; Low (100 ng/mL), T = 72 hours
  Particle Counts/mL ≥10 μm: 1 Counts/mL
  Particle Counts/mL ≥25 μm: 0 Counts/mL
Human CD3ε/δ
  ka (± SD): 5.7 (± 0.6) × 10^5 M^−1s^−1
  kd (± SD): 5.0 (± 0.9) × 10^−3 s^−1
Human CD3ε/δ; read-out: KD (± SD)
  Kd: 9 ± 2.3 nM
Visual appearance; [18]
  Visual Appearance: C, L
  Visual Appearance, Particulates: FNP, FPP
Visual appearance; [19]
  Visual Appearance: C, L
  Visual Appearance, Particulates: FNP, FPP
Visual appearance; [20]
  Visual Appearance: C, L
  Visual Appearance, Particulates: FNP, FPP
Visual appearance; [21]
  Visual Appearance: C, L
  Visual Appearance, Particulates: FNP, FPP
Visual appearance; [22]
  Visual Appearance: C, L
  Visual Appearance, Particulates: FNP, FPP
Visual appearance; [23]
  Visual Appearance: C, L
  Visual Appearance, Particulates: FNP, FPP
Visual appearance; [24]
  Appearance: C, L
  Appearance, Particulates: FNP, FPP
Visual appearance; [25]
  Appearance: C, L
  Appearance, Particulates: FNP, FPP
Visual appearance; Stabilizer 2, T = 0
  Appearance: C, L
  Appearance, Particulates: FNP, FPP
Visual appearance; 0.1 mg/mL in Stabilizer 2 dosing solution, storage and administration
  Visual Appearance: No change in visual appearance
Visual appearance; Stabilizer 2 in saline bag, T=0, after 72 h storage and post infusion (48 or 96 hours)
  visual appearance of dosing solutions: clear, colorless with no visible particulates
[4]; 0.1 mg/mL in Stabilizer 2 dosing solution, 72-hour RT storage and administration
  SE-HPLC species: no changes in the LMW and LMW
[4]; [26]
  FLR SE-HPLC % HMW: 0.9%
  FLR SE-HPLC % LMW: 0.9%
  FLR SE-HPLC % Main Peak: 98.2%
[4]; [27]
  FLR SE-HPLC % HMW: 0.8%
  FLR SE-HPLC % LMW: 0.9%
  FLR SE-HPLC % Main Peak: 98.4%
[4]; T = 0 Hrs
  FLR SE-HPLC % HMW: 0.8%
  FLR SE-HPLC % LMW: 0.9%
  FLR SE-HPLC % Main Peak: 98.4%
Cynomolgus CD3ε/δ
  ka (± SD): 5.5 (± 0.5) × 10^5 M^−1s^−1
  kd (± SD): 5.0 (± 0.9) × 10^−3 s^−1
Cynomolgus CD3ε/δ; read-out: KD (± SD)
  Kd: 9.2 ± 2.3 nM
Osmolality; [6]
  Osmolality: 274 mOsm/kg
Osmolality; [7]
  Osmolality: 275 mOsm/kg
Osmolality; [8]
  Osmolality: 275 mOsm/kg
Osmolality; [9]
  Osmolality: 276 mOsm/kg
Osmolality; [10]
  Osmolality: 276 mOsm/kg
Osmolality; [11]
  Osmolality: 276 mOsm/kg
Osmolality; [12]
  Osmolality: 276 mOsm/kg
Osmolality; [13]
  Osmolality: 275 mOsm/kg
Osmolality; [14]
  Osmolality: 275 mOsm/kg
[5]
  leukemic cell population: depletion of the leukemic cell population over time
Human CD123-His
  ka (± SD): 1.6 (± 0.4) × 10^6 M^−1s^−1
  kd (± SD): 1.9 (± 0.4) × 10^−4 s^−1
